Assays:
[1] = molecular target: T1, Recombinant human TSLP-his (human, UniProt Q969D9 29-159); test: SPR, Biacore T200; TSLP-his amine-coupled to CM5 chip, antibody as analyte; 1:1 Langmuir fit
T1 construct: Prepared in-house; Amine-coupled to CM5 chip in SPR, loaded on APS sensors in Octet, biotin-labeled in the capture ELISA, unlabeled in the cell functional assays; also called human TSLP-his protein
Method: (§1) Briefly, Biosion in house synthesized recombinant human TSLP-his (SEQ ID NO.: 28) or cynomolgus monkey TSLP-his protein (SEQ ID NO.: 29) in CH₃COONa buffer (provided by Biocore) at the concentration of 10 μg/mL was covalently linked to a CM5 chip (carboxy methyl dextran coated chip from GE healthcare #BR100530) via primary amines, using a standard amine coupling kit provided by Biacore (GE healthcare, Pittsburgh, Pa., USA). Un-reacted moieties on the biosensor surface were blocked with ethanolamine. […] The antigen-antibody association kinetics was followed for 4 minutes and the dissociation kinetics was followed for 13 minutes. The association and dissociation curves were fit to a 1:1 Langmuir binding model using BIAcore evaluation software, and the KD, Kₐ and Kd values were determined and shown in Table 2 below.

[2] = molecular target: T1, Recombinant human TSLP-his; test: SPR, Biacore T200; protocol of Example 2
Method: as §1

[3] = molecular target: T1, Recombinant human TSLP-his; test: SPR, Biacore T200; below the instrument limit, roughly calculated from the sensorgram
Method: as §1

Kd [1]	koff [1]	kon [1]	Kd [2]	koff [2]	kon [2]	koff [3]	Binder
< 0.112 nM	< 1e-05 s⁻¹	89700 M⁻¹ s⁻¹					1F5H12D7 (antibody, V domains shown) VH: QVQLQQPGTELVKPGASVKMSCKASGYTFTTYWMHWVKQRPGQGLEWIGVIDPSDSDTTYNQKFKGKATLTVDTSSSTAYMQLSSLTSEDSAVYYCTRSLDGYYDYWGQGTTLTVSS VL: DIQMTQSPASLSASVGETVTITCRPTENIYSYLAWYQQKQGKSPHLLVYFARTLAEGVPSRFSGSGSGTQFSLKINSLQPEDFGIYYCQHHYGTPWTFGGGTKLEIK
< 0.117 nM	< 1e-05 s⁻¹	85200 M⁻¹ s⁻¹					1G2H12A1 (antibody, V domains shown, Mouse hybridoma mAb) VH: QVQLQQPGTELVKPGASVKMSCKASGYTFTTYWMHWVKQRPGQGLEWIGVIDPSDSDTTYNQKFKGKATLTVDTSSSTAYMQLSSLTSEDSAVYYCTRSLDGYYDYWGQGTTLTVSS VL: DIQMTQSPASLSASVGETVTITCRPTENIYSYLAWYQQKQGKSPHLLVYFARTLAEGVPSRFSGSGSGTQFSLKINSLQPEDFGIYYCQHHYGTPWTFGGGTKLEIK
< 0.108 nM	< 1e-05 s⁻¹	92900 M⁻¹ s⁻¹					1H3F11B7 (antibody, V domains shown, Mouse hybridoma mAb) VH: QVQLQQPGTELVKPGASVKMSCKASGYTFTTYWMHWVKQRPGQGLEWIGVIDPSDSDTTYNQKFKGKATLTVDTSSSTAYMQLSSLTSEDSAVYYCTRSLDGYYDYWGQGTTLTVSS VL: DIQMTQSPASLSASVGETVTITCRPTENIYSYLAWYQQKQGKSPHLLVYFARTLAEGVPSRFSGSGSGTQFSLKINSLQPEDFGIYYCQHHYGTPWTFGGGTKLEIK
< 0.107 nM	< 1e-05 s⁻¹	93600 M⁻¹ s⁻¹					1G3B9B1 (antibody, V domains shown, Mouse hybridoma mAb) VH: QVQLQQPGTELVKPGASVKMSCKASGYTFTTYWMHWVKQRPGQGLEWIGVIDPSDSDTTYNQKFKGKATLTVDTSSSTAYMQLSSLTSEDSAVYYCTRSLDGYYDYWGQGTTLTVSS VL: DIQMTQSPASLSASVGETVTITCRPTENIYSYLAWYQQKQGKSPHLLVYFARTLAEGVPSRFSGSGSGTQFSLKINSLQPEDFGIYYCQHHYGTPWTFGGGTKLEIK
			< 0.0962 nM	< 1e-05 s⁻¹	104000 M⁻¹ s⁻¹	~1.17e-06 s⁻¹	hu1C5F12E9-V16 (antibody, human IgG4 S228P, kappa, V domains shown) VH: QVQLVQSGAEVKKPGASVKVSCKASGYTFTTYWMHWVRQAPGQGLEWMGVIDPSDSDTTYNQKFKGRATMTRDTSTSTVYMELSSLRSEDTAVYYCTRSLDGYYDYWGQGTLVTVSS VL: DIQMTQSPSSLSASVGDRVTITCRPTENIYSYLAWYQQKPGKSPKLLIYFARTLAEGVPSRFSGSGSGTDFTLTISSLQPEDFATYYCQHHYGTPWTFGGGTKVEIKR
			< 0.11 nM	< 1e-05 s⁻¹	90700 M⁻¹ s⁻¹	~7.56e-07 s⁻¹	hu1C5F12E9-V11 (antibody, human IgG4 S228P, kappa, V domains shown) VH: QVQLVQSGAEVKKPGASVKVSCKASGYTFTTYWMHWVRQAPGQGLEWMGVIDPSDSDTTYNQKFKGKATMTRDTSTSTVYMELSSLRSEDTAVYYCTRSLDGYYDYWGQGTLVTVSS VL: DIQMTQSPSSLSASVGDRVTITCRPTENIYSYLAWYQQKPGKAPKLLIYFARTLAEGVPSRFSGSGSGTDFTLTISSLQPEDFATYYCQHHYGTPWTFGGGTKVEIKR
			< 0.104 nM	< 1e-05 s⁻¹	96100 M⁻¹ s⁻¹	< 1e-05 s⁻¹	hu1C5F12E9-V12 (antibody, human IgG4 S228P, kappa, V domains shown) VH: QVQLVQSGAEVKKPGASVKVSCKASGYTFTTYWMHWVRQAPGQGLEWMGVIDPSDSDTTYNQKFKGKATMTVDTSTSTVYMELSSLRSEDTAVYYCTRSLDGYYDYWGQGTLVTVSS VL: DIQMTQSPSSLSASVGDRVTITCRPTENIYSYLAWYQQKPGKAPKLLIYFARTLAEGVPSRFSGSGSGTDFTLTISSLQPEDFATYYCQHHYGTPWTFGGGTKVEIKR
			< 0.0909 nM	< 1e-05 s⁻¹	110000 M⁻¹ s⁻¹	~6.43e-06 s⁻¹	hu1C5F12E9-V17 (antibody, human IgG4 S228P, kappa, V domains shown) VH: QVQLVQSGAEVKKPGASVKVSCKASGYTFTTYWMHWVRQAPGQGLEWMGVIDPSDSDTTYNQKFKGKATMTRDTSTSTVYMELSSLRSEDTAVYYCTRSLDGYYDYWGQGTLVTVSS VL: DIQMTQSPSSLSASVGDRVTITCRPTENIYSYLAWYQQKPGKSPKLLIYFARTLAEGVPSRFSGSGSGTDFTLTISSLQPEDFATYYCQHHYGTPWTFGGGTKVEIKR
			< 0.082 nM	< 1e-05 s⁻¹	122000 M⁻¹ s⁻¹	~6.57e-07 s⁻¹	hu1C5F12E9-V9 (antibody, human IgG4 S228P, kappa, V domains shown) VH: QVQLVQSGAEVKKPGASVKVSCKASGYTFTTYWMHWVRQAPGQGLEWMGVIDPSDSDTTYNQKFKGRVTMTVDTSTSTVYMELSSLRSEDTAVYYCTRSLDGYYDYWGQGTLVTVSS VL: DIQMTQSPSSLSASVGDRVTITCRPTENIYSYLAWYQQKPGKAPKLLIYFARTLAEGVPSRFSGSGSGTDFTLTISSLQPEDFATYYCQHHYGTPWTFGGGTKVEIKR
			< 0.0893 nM	< 1e-05 s⁻¹	112000 M⁻¹ s⁻¹	~3.63e-06 s⁻¹	hu1C5F12E9-V15 (antibody, human IgG4 S228P, kappa, V domains shown) VH: QVQLVQSGAEVKKPGASVKVSCKASGYTFTTYWMHWVRQAPGQGLEWMGVIDPSDSDTTYNQKFKGRVTMTVDTSTSTVYMELSSLRSEDTAVYYCTRSLDGYYDYWGQGTLVTVSS VL: DIQMTQSPSSLSASVGDRVTITCRPTENIYSYLAWYQQKPGKSPKLLIYFARTLAEGVPSRFSGSGSGTDFTLTISSLQPEDFATYYCQHHYGTPWTFGGGTKVEIKR
			< 0.0962 nM	< 1e-05 s⁻¹	104000 M⁻¹ s⁻¹	~3.62e-07 s⁻¹	hu1C5F12E9-V13 (antibody, human IgG4 S228P, kappa, V domains shown) VH: QVQLVQSGAEVKKPGASVKVSCKASGYTFTTYWMHWVRQAPGQGLEWIGVIDPSDSDTTYNQKFKGRATLTVDTSSSTAYMELSSLRSEDTAVYYCTRSLDGYYDYWGQGTLVTVSS VL: DIQMTQSPSSLSASVGDRVTITCRPTENIYSYLAWYQQKPGKSPKLLIYFARTLAEGVPSRFSGSGSGTDFTLTISSLQPEDFATYYCQHHYGTPWTFGGGTKVEIKR
			< 0.0971 nM	< 1e-05 s⁻¹	103000 M⁻¹ s⁻¹	< 1e-05 s⁻¹	hu1C5F12E9-V5 (antibody, human IgG4 S228P, kappa, V domains shown) VH: QVQLVQSGAEVKKPGASVKVSCKASGYTFTTYWMHWVRQAPGQGLEWMGVIDPSDSDTTYNQKFKGKATMTRDTSTSTVYMELSSLRSEDTAVYYCTRSLDGYYDYWGQGTLVTVSS VL: DIQMTQSPSSLSASVGDRVTITCRPTENIYSYLAWYQQKPGKSPKLLVYFARTLAEGVPSRFSGSGSGTDFTLTISSLQPEDFATYYCQHHYGTPWTFGGGTKVEIKR
			< 0.0826 nM	< 1e-05 s⁻¹	121000 M⁻¹ s⁻¹	~9.65e-06 s⁻¹	hu1C5F12E9-V18 (antibody, human IgG4 S228P, kappa, V domains shown) VH: QVQLVQSGAEVKKPGASVKVSCKASGYTFTTYWMHWVRQAPGQGLEWMGVIDPSDSDTTYNQKFKGKATMTVDTSTSTVYMELSSLRSEDTAVYYCTRSLDGYYDYWGQGTLVTVSS VL: DIQMTQSPSSLSASVGDRVTITCRPTENIYSYLAWYQQKPGKSPKLLIYFARTLAEGVPSRFSGSGSGTDFTLTISSLQPEDFATYYCQHHYGTPWTFGGGTKVEIKR
			< 0.101 nM	< 1e-05 s⁻¹	99300 M⁻¹ s⁻¹	< 1e-05 s⁻¹	hu1C5F12E9-V1 (antibody, human IgG4 S228P, kappa, V domains shown) VH: QVQLVQSGAEVKKPGASVKVSCKASGYTFTTYWMHWVRQAPGQGLEWIGVIDPSDSDTTYNQKFKGRATLTVDTSSSTAYMELSSLRSEDTAVYYCTRSLDGYYDYWGQGTLVTVSS VL: DIQMTQSPSSLSASVGDRVTITCRPTENIYSYLAWYQQKPGKSPKLLVYFARTLAEGVPSRFSGSGSGTDFTLTISSLQPEDFATYYCQHHYGTPWTFGGGTKVEIKR
			< 0.0971 nM	< 1e-05 s⁻¹	103000 M⁻¹ s⁻¹	< 1e-05 s⁻¹	hu1C5F12E9-V3 (antibody, human IgG4 S228P, kappa, V domains shown) VH: QVQLVQSGAEVKKPGASVKVSCKASGYTFTTYWMHWVRQAPGQGLEWMGVIDPSDSDTTYNQKFKGRVTMTVDTSTSTVYMELSSLRSEDTAVYYCTRSLDGYYDYWGQGTLVTVSS VL: DIQMTQSPSSLSASVGDRVTITCRPTENIYSYLAWYQQKPGKSPKLLVYFARTLAEGVPSRFSGSGSGTDFTLTISSLQPEDFATYYCQHHYGTPWTFGGGTKVEIKR
			< 0.0926 nM	< 1e-05 s⁻¹	108000 M⁻¹ s⁻¹	< 1e-05 s⁻¹	hu1C5F12E9-V7 (antibody, human IgG4 S228P, kappa, V domains shown) VH: QVQLVQSGAEVKKPGASVKVSCKASGYTFTTYWMHWVRQAPGQGLEWIGVIDPSDSDTTYNQKFKGRATLTVDTSSSTAYMELSSLRSEDTAVYYCTRSLDGYYDYWGQGTLVTVSS VL: DIQMTQSPSSLSASVGDRVTITCRPTENIYSYLAWYQQKPGKAPKLLIYFARTLAEGVPSRFSGSGSGTDFTLTISSLQPEDFATYYCQHHYGTPWTFGGGTKVEIKR

— patent publication US20220289833A1 (BIOSION, published 2022)
